Patent US20040265797A1 (published 2004)
Where two headings read alike, the source gives them in different places. Ends that are not written are not given here.

Tests used:
[1] = biological target: T1, Soluble recombinant human urokinase receptor (suPAR) (human, UniProt Q03405 23-299, biotinylated in the plate assays (sites not given)); assay: uPAR receptor binding assay
[2] = biological target: T1, Soluble recombinant human urokinase …; assay: uPAR receptor binding assay; remark: listed apart in the source

T1 sequence (Q03405 23-299): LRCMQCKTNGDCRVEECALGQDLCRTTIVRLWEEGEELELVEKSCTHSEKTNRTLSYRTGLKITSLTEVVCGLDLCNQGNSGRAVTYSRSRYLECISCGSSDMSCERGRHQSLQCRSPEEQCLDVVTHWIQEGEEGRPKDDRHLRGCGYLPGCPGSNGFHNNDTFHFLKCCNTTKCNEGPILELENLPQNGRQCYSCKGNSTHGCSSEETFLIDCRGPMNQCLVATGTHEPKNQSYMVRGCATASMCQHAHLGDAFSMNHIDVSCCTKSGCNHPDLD

| IC50 [1] | IC50 [2] | Binder |
| --- | --- | --- |
| 0.01 µM | 0.01 µM | AEPMPHSLNFSQYLWYT-NH2 [Clone 20 peptide] |
| > 10 µM | > 10 µM | AESTYHHLSLGYMYTLN-NH2 [Peptide 25 (synthetic peptide of clone 25)] |
| 0.25 µM | 0.25 µM | CLNGGTAVSNKYFSNIHWCN [uPA13-32 peptide (amino acids 13-32 of human urokinase with Cys19 converted to Ala)] |
